Laboratory results reported in the DeepSol protein solubility set.

Assay: soluble on expression in E. coli; label from the status in PepcDB or PDB records

Sequence | soluble on expression in E. coli
MSVTEHKKQAPKEVRCKIVTISDTRTEETDKSGQLLHELLKEAGHKVTSYEIVKDDKESIQQAVLAGYHKEDVDVVLTNGGTGITKRDVTIEAVSALLDKEIVGFGELFRMISYLEDIGSSAMLSRAIGGTIGRKVVFSMPGSSGAVRLAMNKLILPELGHITFELHRQ | soluble
MSSTIKAIAVLKGDSPVQGVITFTQESSGGPVTVSGEIKNMDANAQRGFHVHQFGDNSNGCTSAGPHFNPTGTNHGDRTAEVRHVGDLGNVKTDASGVAKVQISDSQLSLVGPHSIIGRTIVIHAGEDDLGKTDHPESLKTGNAGARSACGVIGIAAAAALEHHHHHH | soluble
MKGNRQRIQPKNIFQAVIDSPLSDQEKEVLTFLYQPIVGANAFSLYWLLLSETTDSEENGSLFHADLISLLDLSCQQLEEACYKLEGIGLLETYKKTDRELGDCYLYYLKAPETAARFFKDEVLALVLFNRVGQRKFDQLVQKFQPHPTKTEGYQNVSASFQEVYAFKEEQIVSEANRLTTIQETFSQKEKSKKISVSTDSFDWHYFVEGLHRLGLQLPEDEASFQEEVYVFHQLYGINELDMVDFASKSFDYYTSRILPKELVRTIHQAFDPDKKPQSTNVVTNKQAQLTVEEQQTYRYNALKMNGFSELDIQMIMDSEKNPPIQYLEALKNSRGGYTTPQERSLVKYLVAKSGLPTSVINILINYVYNIQQQPTLKAEYVNRIANEWGQSGIHSPEKAIEHVRELAKQSQTKQKQRQQNYSGKRQTVRQERLPEWADQPNDETKLSPEEQAELDRQIQEFLNQGGDQ | not soluble
MGSDKIHHHHHHMVILVNPSILESSFIPDRLVARDGEIERIMETVIKPTKNGITTNLILYGDSGTGKTVTMRYLAREIRDPQVVYVNAIAYRYVKNVLIDFLSKFGIIVPERSSYASLFTRIEGLLRNQGKNVILVIDEAANILKGDYDGLYYLFRSKDSFDVNISTIFVVMEDPAILFDAKIRKSYGIFSEIKFRRYTKGEIYQIVMNRAVQSLTGEGYDEDVLDYIAEVSAEYGSARVGIDILAKAAHIAEYRRSPKISFDDVRAARSMISPFVTESKLASMDYEDLMVLLSICRCLSASRFTDVDCISRNLSVISEQYGKKDINLYDRIKRLENNGIISSSIEGQGRGEGVKKVISIYDIPVSVLTEKIENLLSA | not soluble
MSLSTELDFEKPIRDLKGKIEELRTFTEEKEIDLSDEIEKLEKRLHALEENIYGNLKPWQRVQIARHGERPTTLDYIEQLFSDFLEMHGDRLYGDDEAIVAGIAKYKGQPVTVIGHQRGKDTKENIRRNFGMPHPEGYRKALRLMKQAEKFHRPVICFIDTKGAYPGKAAEERGQSEAIARNLLEMAGLKVPIVCIVIGEGGSGGALALGVGDRIHMLENSTYSVISPEGAAALLWKDASQAQRAAETMKITAPDLKELQIIDDIIPEVRGGAHRNVAEQAEAIDQVLEKSLKQLSSLTTEELLNKRYEKYKKIGEFSHVNDAISVNEGHHHHHH | soluble
MSLNPKKYNGDHLDEKSREIMLKTIEFFENMGKAKLKEKASKREWYADFLEFIKENKIFYTLMTPPEYADGDPNVRWDTWRICDFSELLAFYSLDYWYTWQVTVLGLGPIWMSKNEKIKKEVAELLKNGAVFAFGLSEREHGADIYATETKLVPQPDGTYKAYGRKYYIGNSNVAAIISTFARIADPDGSLPDKPDKSRFAFFALRRDEKYYELIKNIVDAQMFVGDFLIHDYPVTEDDILEKGEEAWDAALNTVNVGKFNLGWASIGICTHAFYEAINHASKRRLYGMYVTDFPHIKRLFVDAYARLMAMKLFARRACDYMRVASREDRRYLLYSAMVKSKVTREGEEVINLLWDVIAAKGFEKDTYFEMAARHIRALPKLEGTVHVNMALILKFLPKYLFEPAEFPEVPKMDVPKHDEFLFNQGPSGGLSQVRFHDYQKVYDSFDFPNINVFKEQIATFKEMCMAAPPSPEQMRDFDFMVTWGEMFALLVYGHLILEAAKIYDVDKDLLEEIFDFMIRDFSKFAVELMAKPSATDKQIEYAKKMIKRPVPDKERFERVVKKVYSYADAYEMNEGHHHHHH | not soluble
MGHHHHHHSHMRLPSKPYSTLPIFSLGPSALQRGESSMRSEKPSTAHHRPLRSIARFSSKSKSMDKSDEELQFPKELMEDWSTMEVCVDCKKFISEIISSSRRSLVLANKRARLKRKTQSFYMSSPGPSEYCPSERTISEI | not soluble
MKHVPPTVLVWFRNDLRLHDHEPLHRALKSGLAITAVYCYDPRQFAQTHQGFAKTGPWRSNFLQQSVQNLAESLQKVGNKLLVTTGLPEQVIPQIAKQINAKTIYYHREVTQEELDVERNLVKQLTILGIEAKGYWGSTLCHPEDLPFSIQDLPDLFTKFRKDIEKKKISIRPCFFAPSQLLPSPNIKLELTAPPPEFFPQINFDHRSVLAFQGGETAGLARLQDYFWHGDRLKDYKETRNGMVGADYSSKFSPWLALGCLSPRFIYQEVKRYEQERVSNDSTHWLIFELLWRDFFRFVAQKYGNKLFNRGGLLNKNFPWQEDQVRFELWRSGQTGYPLVDANMRELNLTGFMSNRGRQNVASFLCKNLGIDWRWGAEWFESCLIDYDVCSNWGNWNYTAGIGNDARDFRYFNIPKQSQQYDPQGTYLRHWLPELKNLPGDKIHQPWLLSATEQKQWGVQLGVDYPRPCVNFHQSVEARRKIEQMGVIA | soluble
SLIENSHVKKDDIWPSGGQMTVKDLTAKYTEGGNAILENISFSISPGQRVGLLGRTGSGKSTLLSAFLRLLNTEGEIQIDGVSWDSITLEQWRKAFGVIPQKVFIFSGTFRKNLDPYEQWSDQEIWKVADEVGLRSVIEQFPGKLDFVLVDGGCVLSHGHKQLMCLARSVLSKAKILLLDEPSAHLDPVTYQIIRRTLKQAFADCTVILCEARIEAMLECDQFLVIEENKVRQYDSILELYHYPADRFVAGFIGSPKMNFLPVKVTATAIDQVQVELPMPNRQQVWLPVESRDVQVGANMSLGIRPEHLLPSDIADVILEGEVQVVEQLGNETQIHIQIPSIRQNLVYRQNRVVLVEEGATFAIGLPPERCHLFREDGTACRRLHKEPGV | soluble
MAKTYGLIGLYSRIVNKIEDSKKYLSLAIEMNIQSGNHKSLFVNELRLAHTYQWETNYHKSNKLFKKLKEQSESDTEHSNYLDSVYQHYGKNLFDQSEYQLALKYVKKALRIRVEKGNKELIDSTEYAINICNEKIKQIKEMAGDPLEHHHHHH | not soluble
MSLANIKEIARLANVSVSTVSRVLNHHPYVSEEKRKLVHQVMKELDYTPNRTAIDLIRGKTHTVGVILPYSDHPCFDKIVNGITKAAFQHEYATTLLPTNYNPDIEIKYLELLRTKKIDGLIITSRANHWDSILAYQEYGPVIACEDTGDIDVPCAFNDRKTAYAESFRYLKSRGHENIAFTCVREADRSPSTADKAAAYKAVCGRLEDRHMLSGCNDMNDGELAAEHFYMSGRVPTAIYANSDEVAAGIHLFAKKNNWDVEIIGEGNTSISRVLGFPSLDLNLEQLGIAAFSLFLQDEPADIKIQHKFKKKAEGHHHHHH | soluble
MPERDALLTDLVGDRAAEWDTSGELPRDLLVRLGADGLLCAEVAAEHGGLGLGSRENGEFTAHVGSLCSSLRSVMTSQGMAAWTVQRLGDAGQRATFLKELTSGKLAAVGFSERQAGSDLSAMRTRVRLDGDTAVVDGHKVWTTAAAYADHLVVFGLQEDGSGAVVVVPADTPGVRVERVPKPSGCRAAGHADLHLDQVRVPAGAVLAGSGASLPMLVAASLAYGRKSVAWGCVGILRACRTAAVAHARTREQFGRPLGDHQLVAGHIADLWTAEQIAARVCEYASDHWDEGSPEMVPATILAKHVAAERAAAGAATAAQVLASAGAREGHVVERAYRDAKLMEIIEGSSEMCRVMLAQHALALPA | soluble
SLNEQELQDLQKMVGVAVNALGDIKAKDISVLETQDKTSLFARMIIASGDSTRQVKALANNVAVDLKEAGFEILSTEGDSGEWTLVDAGDLVVHVMLPAVRDFYDIDTLWGGEKPSFHAGMQKPWHAAD | soluble
NVDKAIKFGQIQNKAVTLGQGGFFNDDFSDGQAGVHYPDLDNAEPMPESEKLQYEKRLVGFYLSHHPLDRFRRDWEAFASLTLDKRDVTPSKL | not soluble
MTLYPKLILDALATVRYPGTGKNLLEAEMVADNLRIDGMAVSFSLIFEKPTDPFMKSMLKAAETAIHTYVSPDVQVTITTESKQAARPEVGKLLPQVKNIIGISSGKGGVGKSTVSANLAVALAKLGYKVGLLDADIFGPSMPKMFQVEDARPYAEKINGRDLIIPVEKYGVKLLSIGFFVDPDQATLWRGGMASNALKQLIGDADWGDLDYFLIDLPPGTSDIHLTVVQTLAMTGAIVVSTPQAVALADARKGINMFTNDKVNVPILGLVENMAWFTPAELPENKYYIFGKEGAKKLAEEMNVPLLGQIPIVQSICEGGDNGTPVALDEDTVTGRAFLSLAASVVRQVDRRNVEMAPTKIVEMH | not soluble
MGSDKIHHHHHHMNKQTEHDTREHLLATGEQLCMQRGFTGMGLSELLKTAQVPKGSFYHYFRSKEAFGVAMLERHYACYHQRLTAHFTSGPGNHRDRLLAWYQETLKQFCQQGAISGCLTVKLSAEVCDLSEDMRSTMDKGAQEIMALLARALEDGRNSHCLHFTGQPLPQAQVLYALWLGANLQAKISRSAAPLENALAHVKTIIATPEQ | not soluble
MSNSSKDADSNLKSTVKPRYLILGSGSIGFALAKELRESNKLVIIVDKDEAKIETLREEGFEAILGDISDPELVNNIDLKNVVAILFLSSNNEANRKGIENFKKVVNPDIQIFSRASDIINKEKMEDLGSDYVFMPSKLVASSLSRSLERAESVHRGNRLARWLKGIRDKKLAIVIHDNPDPDAISSGLALKEIAKSLGVEASILYHGRIGHQENKAFVNLLGIDLGKMEEHDLKDFDEIALIDCSIPGVNNMVPPNSYVGIVIDHHPPGETEIKAEYIDIRPNFGATATIMTKYLQQLNINISKTLATALLYGIRTDTQDFKRKTDPADLSAASYLYPLSNHGILDQLEQPSMAIETLEVLGEAIRNRQVLGSYLLSNVGNIRDRDTLPQAADYLLSLEGISTTVVFGVSEDRIYISGRSTDIRVNLGEIMRQAFGEDAGGHANAAGAQIPLGVFSATKDRQTLLRLVNEAVVKRFLSAVGVESTGE | soluble
MMEDDGQPRTLYVGNLSRDVTEVLILQLFSQIGPCKSCKMITEHTSNDPYCFVEFYEHRDAAAALAAMNGRKILGKEVKVNWATTPSSQK | soluble
MGVPFIRFLNITFDRRGDELTGVLNFDDKLIGNPFLPAIHGGVTAAFLEVTAVITLSWAHLFERIESGDLAPEDILTDENMRFPKTIDFTIDYLRSGLPRDAYARAYISRAGRRYASVRVEAWQDHHDKLYAQGTGHFLMPLEHHHHHH | soluble
MLAFFRRFMSTTTVTAQPVLPWFRNVPLAPADPILGVTEAFKKDTNPNKINLGVGAYRDDQGKPFVLRAVREAEQQIIDAKMDKEYSTITGVPEFAPLAAKLAFGDNSEVIRDGRVFTTQSISGTGALRIGGQFVEKFIPSKTLFYPTPTWANHLPVFRNSGLSIQPYRYYNQETLGFDVEGALEDISKMPEGSVILLHACAHNPTGVDPTKEQWKKLSQVLKERKILPFFDMAYQGFASGDVDDDAFALRHFIEQGHNVLVAQSFAKNMGLYGERVGAFSIVCDSAEEAIRVGSQMRIIIRPMISMPPLHGARIASRILSNPELKKSWLEDVKLMADRIKSMRTALKDGLKAEGSTLNWDHITNQIGMFCFTGINEKQVQKLIKEHSVYLTNDGRISISGINTGNVAYLAKALHDVTK | not soluble
MRKQFLIAHRGYSTIAPENTHLAFAAAQLFGFDGLWMEVQLTKDKQIVVTNLDNYKVGNKTHKLSDINLVNLKKINLAKQFKVNVQEQTILTLKEVLMEFLTPFRFLLLFIKGEEEQQNQVLVEQLAQLLEGFELAKEKLILLSSHFSTIKYLNEKLKSFKTSFVFNSKKQLVHLTKDEITQNCRFLAPNDSFYHKNCAELQSYGLPIILWVIKGLLRYQFYENDRFVKFQIAAQLY | soluble
